In the assay the target is T1, 鼠疫耶尔森菌抗原F1 (重组F1蛋白) (Yersinia pestis, UniProt P26948 22-170).
T1 construct: also called F1抗原; 鼠疫抗原F1
The assay can be described thus: immunological detection (免疫学检测).

T1 sequence (P26948 22-170 limits assumed): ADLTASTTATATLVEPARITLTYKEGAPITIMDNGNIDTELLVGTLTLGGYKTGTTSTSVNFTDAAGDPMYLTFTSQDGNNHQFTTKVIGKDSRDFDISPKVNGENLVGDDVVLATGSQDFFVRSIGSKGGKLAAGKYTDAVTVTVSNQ

B1: 人鼠嵌合单克隆抗体 hm YF202 (antibody, V domains shown)
VH: ESGPDLVKPSQSLSLTCTVTGYSITSGYSWHWIRQFPGNKLEWMGYIHYSGSTNYNPSLKSRISITRDTSKNQFFLQLNSVTTEDTATYYCARNYAMDYWGQGTLVTVS
VL: DIVMTQSPKFMSTSVGDRVSVTCKASQNVGTNVAWYQQKPGQSPKALIYSASYRYSGVPDRFTGSGSGTDFTLTISNVQSEDLAEYFCQQYNSYPYTFGGGTKLEIKR
notes: also called 抗F1的人鼠嵌合单克隆抗体
For B1, the binding result is given as “binds”.

Source of the values: patent CN111690061A (EASTERN THEATER COMMAND DISEASE CONTROL AND PREVENTION …, dated 2020).
